The chains are these.
T1: Gal4 DNA-BD-Grb14 fusion (full length Grb14, GRB14/pAS2.1)
T1 chain: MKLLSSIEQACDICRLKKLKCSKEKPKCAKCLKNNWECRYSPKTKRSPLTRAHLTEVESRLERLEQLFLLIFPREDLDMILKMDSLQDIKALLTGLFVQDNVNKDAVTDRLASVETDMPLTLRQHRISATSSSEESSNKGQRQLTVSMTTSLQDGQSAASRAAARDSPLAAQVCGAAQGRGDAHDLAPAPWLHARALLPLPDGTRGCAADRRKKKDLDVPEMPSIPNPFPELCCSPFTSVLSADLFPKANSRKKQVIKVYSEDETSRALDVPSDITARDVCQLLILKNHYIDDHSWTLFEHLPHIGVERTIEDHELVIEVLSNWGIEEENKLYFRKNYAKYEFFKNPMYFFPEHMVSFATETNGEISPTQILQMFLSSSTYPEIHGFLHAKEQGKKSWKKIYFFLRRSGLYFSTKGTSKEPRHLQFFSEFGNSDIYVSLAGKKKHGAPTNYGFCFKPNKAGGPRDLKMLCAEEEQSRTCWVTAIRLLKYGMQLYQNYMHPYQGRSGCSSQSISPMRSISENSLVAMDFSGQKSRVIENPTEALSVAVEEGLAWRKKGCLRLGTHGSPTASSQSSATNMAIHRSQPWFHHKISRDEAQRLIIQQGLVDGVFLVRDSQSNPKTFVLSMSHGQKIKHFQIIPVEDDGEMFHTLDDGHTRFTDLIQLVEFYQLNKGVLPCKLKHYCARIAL

B1: Gal4 DNA-BD fusion of the Grb14 N-terminus (amino acids 1-110) in pAS2.1 (other, UniProt P04386 1-147, looked up)
chain: MKLLSSIEQACDICRLKKLKCSKEKPKCAKCLKNNWECRYSPKTKRSPLTRAHLTEVESRLERLEQLFLLIFPREDLDMILKMDSLQDIKALLTGLFVQDNVNKDAVTDRLASVETDMPLTLRQHRISATSSSEESSNKGQRQLTVSMTTSLQDGQSAASRAAARDSPLAAQVCGAAQGRGDAHDLAPAPWLHARALLPLPDGTRGCAADRRKKKDLDVPEMPSIPNPFPELCCSPFTSVLSADLFPKANSRKKQVI
B2: original 2.2412 cDNA clone in pACT-2 (nucleotides 694-2664 of FIG. 1, polypeptide of 657 amino acids) (other, not shown: large carriers)
chain: ERLAYEFKGHSLLQAAREADVTRIKKHLSLEMVNFKHPQTHETALHCAAASPYPKRKQICELLLRKGANINEKTKEFLTPLHVASEKAHNDVVEVVVKHEAKVNALDNLGQTSLHRAAYCGHLQTCRLLLSYGCDPNIISLQGFTALQMGNENVQQLLQEGISLGNSEADRQLLEAAKAGDVETVKKLCTVQSVNCRDIEGRQSTPLHFAAGYNRVSVVEYLLQHGADVHAKDKGGLVPLHNACSYGHYEVAELLVKHGAVVNVADLWKFTPLHEAAAKGKYEICKLLLQHGADPTKKNRDGNTPLDLVKDGDTDIQDLLRGDAALLDAAKKGCLARVKKLSSPDNVNCRDTQGRHSTPLHLAAGYNNLEVAEYLLQHGADVNAQDKGGLIPLHNAASYGHVDVAALLIKYNASLNATDKWAFTPLHEAAQKGRTQLCALLLAHGADPTLKNQEGQTPLDLVSADDVSALLTAAMPPSALPSCYKPQVLNGVRSPGATADALSSGPSSPSSLSAASSLDNLSGSFSELSSVVSSSGTEGASSLEKKEVPGVDFSITQFVRNLGLEHLMDIFEREQITLDVLVEMGHKELKEIGINAYGHRHKLIKGVERLISGQQGLNPYLTLNTSGSGTILIDLSPDDKEFQSVEEEMQSTVREHR
B3: Htk partial cDNA clone in pACT2 (intracellular region and part of the extracellular domain) (receptor, human, UniProt P54760 436-987, looked up, not shown: large carriers)
chain: AVSDIRVTRSSPSSLSLAWAVPRAPSGAVLDYEVKYHEKGAEGPSSVRFLKTSENRAELRGLKRGASYLVQVRARSEAGYGPFGQEHHSQTQLDESEGWREQLALIAGTAVVGVVLVLVVIVVAVLCLRKQSNGREAEYSDKHGQYLIGHGTKVYIDPFTYEDPNEAVREFAKEIDVSYVKIEEVIGAGEFGEVCRGRLKAPGKKESCVAIKTLKGGYTERQRREFLSEASIMGQFEHPNIIRLEGVVTNSMPVMILTEFMENGALDSFLRLNDGQFTVIQLVGMLRGIASGMRYLAEMSYVHRDLAARNILVNSNLVCKVSDFGLSRFLEENSSDPTYTSSLGGKIPIRWTAPEAIAFRKFTSASDAWSYGIVMWEVMSFGERPYWDMSNQDVINAIEQDYRLPPPPDCPTSLHQLMLDCWQKDRNARPRFPQVVSALDKMIRNPASLKIVARENGGASHPLLDQRQPHYSAFGSVGEWLRAIKMGRYEESFAAAGFGSFELVSQISAEDLLRIGVTLAGHQKKILASVQHMKSQAKPGTPGGTGGPAPQY
B4: Gal4 DNA-BD fusion of the Grb14 central region (amino acids 110-437) in pAS2.1 (other, UniProt P04386 1-147, looked up)
chain: MKLLSSIEQACDICRLKKLKCSKEKPKCAKCLKNNWECRYSPKTKRSPLTRAHLTEVESRLERLEQLFLLIFPREDLDMILKMDSLQDIKALLTGLFVQDNVNKDAVTDRLASVETDMPLTLRQHRISATSSSEESSNKGQRQLTVSIKVYSEDETSRALDVPSDITARDVCQLLILKNHYIDDHSWTLFEHLPHIGVERTIEDHELVIEVLSNWGIEEENKLYFRKNYAKYEFFKNPMYFFPEHMVSFATETNGEISPTQILQMFLSSSTYPEIHGFLHAKEQGKKSWKKIYFFLRRSGLYFSTKGTSKEPRHLQFFSEFGNSDIYVSLAGKKKHGAPTNYGFCFKPNKAGGPRDLKMLCAEEEQSRTCWVTAIRLLKYGMQLYQNYMHPYQGRSGCSSQSISPMRSISENSLVAMDFSGQKSRVIENPTEALSVAVEEGLAWRKKGCLRLGTHGSPTASSQSSATNMAIHRSQ
B5: Nedd4 partial cDNA clone in pACT2 (CaLB domain together with the first 22 amino acids of the first WW domain) (other, human, UniProt P46934-4 1-212, looked up, not shown: large carriers)
chain: MATCAVEVFGLLEDEENSRIVRVRVIAGIGLAKKDILGASDPYVRVTLYDPMNGVLTSVQTKTIKKSLNPKWNEEILFRVHPQQHRLLFEVFDENRLTRDDFLGQVDVPLYPLPTENPRLERPYTFKDFVLHPRSHKSRVKGYLRLKMTYLPKTSGSEDDNAEQAEELEPGWVVLDQPDAACHLQQQQEPSPLPPGWEERQDILGRTYYVNH
B6: L-arginine:glycine amidinotransferase cDNA clone in pACT2 (protein)
chain: ASSRNSCAADDKATEPLPKDCPVSSYNEWDPLEEVIVGRAENACVPPFTIEVKANTYEKYWPFYQKQGGHYFPKDHLKKAVAEIEEMCNILKTEGVTVRRPDPIDWSLKYKTPDFESTGLYSAMPRDILIVVGNEIIEAPMAWRSRFFEYRAYRSIIKDYFHRGAKWTTAPKPTMADELYNQDYPIHSVEDRHKLAAQGKFVTTEFEPCFDAADFIRAGRDIFAQRSQVTNYLGIEWMRRHLAPDYRVHIISFKDPNPMHIDATFNIIGPGIVLSNPDRPCHQIDLFKKAGWTIITPPTPIIPDDHPLWMSSKWLSMNVLMLDEKRVMVDANEVPIQKMFEKLGITTIKVNIRNANSLGGGFHCWTCDVRRRGTLQSYLD

For data set [1], the target named is Gal4 DNA-BD-Grb14 fusion (full length Grb14, GRB14/pAS2.1) (S. cerevisiae) (UniProt P04386). The data set is described as follows: cell-based or functional assay.
Data set [2] addresses B2. The data set is described as follows: yeast two hybrid in strain Y190, liquid- or filter-based beta-galactosidase assays. An excerpt:
(§1) These fragments spanned the following regions: N-terminus (“N”. amino acids 1-110), the central region (“C”) encompassing the mig10 homology and the “between PH and SH2” (BPS) domain (amino acids 110-437) and the N-terminal and central regions (“N+C”, amino acids 1-437). These plasmids were individually transformed into the yeast strain Y190 (MATα, ura3-52, his3-200, ade2-101, lys2-801, trp1-901, leu2-3, 112, gal4Δ, gal80Δ, cyh^r2, LYS2::GAL1UAS-HIS3TATA-HIS3, URA3::GAL1UAS-GAL1TATA-lacZ) and expression of the appropriately sized Gal4 DNA-BD fusion proteins confirmed by Western blotting.

Data set [3] has as its target Gal4 DNA-BD-Grb14 fusion (full length Grb14, GRB14/pAS2.1) (S. cerevisiae, UniProt P04386 1-147; Q14449 1-540). The data set is described as follows: cell-based or functional assay.
Data set [4] addresses B2. The data set is described as follows: yeast two hybrid, liquid- or filter-based beta-galactosidase assays.
From the text: as §1

Data set [5] addresses T1, Gal4 DNA-BD-Grb14 fusion (full length …).

The results in this text go back to patent US20020037582A1 (published 2002).

“Proteosome cDNA clone in pACT2 (from UniProt P04386 768-881)” showed a Mean RLU (Liquid assay), beta-galactosidase activity in data set [1] of 388 RLU.
“Somatostatin receptor cDNA clone in pACT2” registered a Mean RLU (Liquid assay), beta-galactosidase activity in data set [1] of 1450 RLU.
On to B1, for which the binding result in data set [2] was “binds”.
With B2, in data set [3], the “Mean RLU (Liquid assay), beta-galactosidase activity” value was found to be 5.18e+06 RLU.
The same measure, in the same setting: then B3, with 186000 RLU.
For the molecule B4, in data set [4], the binding result is given as “no binding”.
With B5, the “Mean RLU (Liquid assay), beta-galactosidase activity” value in data set [3] was 2.86e+06 RLU.
As to B6, in data set [5], the “Colour intensity (Filter assay), beta-galactosidase” value is “+/-” and the Mean RLU (Liquid assay), beta-galactosidase activity is 861 RLU.
